# Data as given in patent US6004793.
# Tested on: AvaI restriction endonuclease (recombinant) V1M (start codon GTG changed to ATG) (Anabaena variabilis)
# Experiment: cleavage_in_vitro
# Settings: extract of ER2504 [pLG-BsoBIM, pLysS, pAII17-AvaIR]; lambda DNA digestion; recognition site not given
substance,measurement,value
bacteriophage lambda DNA,activity (units/g wet cells),6.4e+06
